Results: PMC7054047
Like-named read-outs stand apart in the source and are kept apart here.

What was measured:
Ol1WSCP [1] = assay: SEC
Ol1WSCP [2] = assay: SEC; remark: listed apart in the source

Ol1WSCP (natural protein)
stoichiometry N (Ol1WSCP [1]): 4
stoichiometry N (Ol1WSCP [2]): 4
